This is an account of results in US20210332123A1 (SUZHOU KANOVA BIOPHARMACEUTICAL, published 2021).

Experiment [1] concerns the target T1, human IL-25 (human, UniProt Q9H293 33-177).
T1 construct: ELISA used bought R&D systems #1258-IL-025/CF; Treated as one molecule; also called IL-17E; human IL-17E
T1 sequence (looked up): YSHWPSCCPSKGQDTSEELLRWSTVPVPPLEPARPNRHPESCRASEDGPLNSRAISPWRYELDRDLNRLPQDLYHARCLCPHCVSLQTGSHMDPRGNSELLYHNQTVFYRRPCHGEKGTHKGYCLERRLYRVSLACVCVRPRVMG
The experiment is described as follows: SPR, Biacore T200; antibody captured by anti-human Fc, IL-25 as analyte. On the procedure: Anti-human Fc gamma specific antibody (Jackson Immuno Research, Lot no. 124448, Code. 109-008-098) was immobilized onto the Biacore T200 sensor chip using amine coupling method. Four antibodies secreted to the culture medium plus the parental antibody were injected and captured by anti-human Fc antibody via Fc (capture phase) individually. After equilibration, IL-25 was injected for 300 seconds (association phase) followed by the injection of running buffer for 1200 s (dissociation phase). Responses of reference flow cell (flow cell 1) were subtracted from those of humanized antibodies flow cells during each cycle. The surface was regenerated before the injection of another humanized antibody. The process was repeated until all antibodies are analyzed. The off-rates of humanized antibodies were obtained from fitting the experimental data locally to 1:1 interaction model using the Biacore T200 evaluation software. The antibodies were ranked by their dissociation rate constants (off-rates, Kd). The binders that interact with IL-25 with similar affinity to parental antibody were selected (Table 1).
For orientation: SPR reads the build-up and loss of mass on a sensor chip optically.

Experiment [2] deals with T2, cynomolgus IL-25 (cynomolgus, UniProt G7P9V9 33-176).
T2 construct: In-house production
T2 sequence: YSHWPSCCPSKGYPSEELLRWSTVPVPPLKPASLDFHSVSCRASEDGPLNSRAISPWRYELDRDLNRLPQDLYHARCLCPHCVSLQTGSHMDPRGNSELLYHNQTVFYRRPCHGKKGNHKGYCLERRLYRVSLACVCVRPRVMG
The experiment is described as follows: ELISA, plate coated with cynomolgus IL-25 (cynoIL25-his), OD450, Example 7 [panel cynoIL25-his]. On the technique in general: In an ELISA, binding on a coated surface is turned into a signal by an enzyme label.

The target in experiment [3] is T3, mouse IL-25 (mouse, UniProt Q8VHH8 17-169, limits assumed).
T3 construct: In-house production
T3 sequence (looked up): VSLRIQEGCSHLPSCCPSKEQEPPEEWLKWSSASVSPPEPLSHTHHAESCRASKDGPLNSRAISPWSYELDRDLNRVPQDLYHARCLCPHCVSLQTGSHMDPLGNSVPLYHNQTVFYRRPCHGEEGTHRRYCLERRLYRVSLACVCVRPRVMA
The experiment is described as follows: ELISA, plate coated with mouse IL-25, OD450, Example 7; unit from the axis lg(nM) [panel Mouse IL-25].

The target in experiment [4] is T4, human IL-17A (human, UniProt Q16552 24-155, limits assumed).
T4 sequence (looked up): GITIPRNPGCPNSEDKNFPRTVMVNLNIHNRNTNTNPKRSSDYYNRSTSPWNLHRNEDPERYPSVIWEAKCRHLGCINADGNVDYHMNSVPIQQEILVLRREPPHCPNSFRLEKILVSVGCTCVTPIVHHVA
The experiment is described as follows: ELISA, plate coated with 2 µg/ml cytokine. On the procedure:
(§1) MaxiSorp 96-well plates (NUNC #449824, www.thermofisher.com) were coated with 2 μg/ml human IL-17A (Cell Signaling #89285F, www.cellsignal.com), human IL-17F (Cell Signaling #8906LC, www.cellsignal.com), human IL-17B (Peprotech #200-28, www.peprotech.com), human IL-17C (R&D systems #1234-IL-025/CF, www.rndsystems.com), human IL-17D ((Peprotech #200-27, www.peprotech.com), human IL-17E (R&D systems #1258-IL-025/CF, www.rndsystems.com) in 1×PBS (50 μl/well) respectively. Plates were incubated at 4° C. overnight. Coating solution was removed and plates were washed once with 200 μl/well PBST (1×PBS with 0.05% tween-20). Then 200 μl/well blocking buffer (1×PBS with 0.05% tween-20, 3% BSA) was added and incubated at room temperature for 1 hour. Blocking buffer was removed and plates were washed three times with 200 μl/well PBST (1×PBS with 0.05% tween-20). The anti-IL-25 antibodies (produced in Example 2), were diluted to 10, 3.33, 1.11, 0.37, 0.123, 0.041, 0.0137, 0.0046, 0.0015, 0.00031, 0.000102, 0.000034 μg/ml by 1×PBS and added to the plates (50 μl/well). Plates were incubated at room temperature for 2 hours. Antibodies in the wells were removed and plates were washed three times with 200 μl/well PBST (1×PBS with 0.05% tween-20) each time. Goat anti-human IgG(H&L)-HRP secondary antibody (Jackson Immuno Research #109-035-088, www.jacksonimmuno.com) was diluted 1:5000 in 1×PBS and added to each well (50 μl/well). Plates were incubated at room temperature for 1 hour. Secondary antibody was removed and plates were washed seven times with 200 μl/well PBST (1×PBS with 0.05% tween-20) each time. 50 μl/well TMB (eBioscience #85-00-4201-56, www.ebioscience.com) was added and plates were incubated at room temperature for several minutes. Then 50 μl/well 2N H₂SO₄ was added to stop the reaction. Plates were read at 450 nm.

Experiment [5] deals with T5, human IL-17B (human, UniProt Q9UHF5 21-180).
T5 sequence (looked up): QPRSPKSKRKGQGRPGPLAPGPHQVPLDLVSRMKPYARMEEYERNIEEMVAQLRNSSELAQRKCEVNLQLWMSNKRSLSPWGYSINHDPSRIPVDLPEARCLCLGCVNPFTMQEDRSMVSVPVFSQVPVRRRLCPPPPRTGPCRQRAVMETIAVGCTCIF
The experiment in a line: ELISA, plate coated with 2 µg/ml cytokine. Here is the method:
as §1

For experiment [6], the target named is T6, human IL-17C (human, UniProt Q9P0M4 19-197).
T6 sequence (looked up): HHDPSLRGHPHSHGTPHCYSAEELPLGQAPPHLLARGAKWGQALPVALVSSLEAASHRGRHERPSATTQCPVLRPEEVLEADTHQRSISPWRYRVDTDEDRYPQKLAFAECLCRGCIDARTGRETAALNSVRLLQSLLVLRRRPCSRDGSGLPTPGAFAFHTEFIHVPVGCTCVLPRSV
The experiment is described as follows: ELISA, plate coated with 2 µg/ml cytokine. On the procedure:
as §1

Experiment [7] addresses T1, human IL-25. The experiment is described as follows: ELISA, plate coated with 2 µg/ml human IL-17E (IL-25). On the procedure: as §1

B1: murine anti-IL-25 monoclonal antibody 18H3 (antibody, V domains shown)
VH: QVTLKESGPGILQPSQTLSLTCSFSGFSLSTSGMGLGWIRQPSGKGLEWLAHIWWDDVKHYKPALKSRLTISKDISSSQVFLTIASVDTADTATYYCARMGQLHYYGYDYAMDYWGQGTSVTVSS
VL: QIVLTQSPAIMSASPGEKVTISCSASSSVSYMYWYQQKPGSSPKPWIYRTSNLASGVPARFSGSGSGTSYSLTISSMEAEDAATYYCQLYHSYPPTWTFGGGTKLEIK
notes: also called parental antibody; parental murine mAb
One may read the Kd as the free concentration of one partner at which half of the binding sites on the other are occupied at equilibrium, for simple one-to-one binding. As usually defined, the koff is the first-order rate constant of dissociation. Lower therefore signals slow dissociation. The kon is the rate constant with which the complex forms. The EC50 is the midpoint of the concentration-response curve. Higher therefore signals a need for much substance. With B1, in experiment [1], the Kd was 0.34 nM, the koff was 0.000267 s⁻¹ and the kon came to 785000 M⁻¹ s⁻¹. This molecule showed an EC50 in experiment [2] of 2.35 nM. In experiment [3], this molecule displayed an EC50 of 0.329 nM.

B2: VH1-1 + VL2-1 (humanized anti-IL-25 antibody formed by VH1-1 and VL2-1) (antibody, V domains shown)
VH: QVTLKESGPTLVKPTQTLTLTCTFSGFSLSTSGMGLGWIRQPPGKALEWLAHIWWDDVKHYKPALKSRLTITKDTSKNQVVLTMTNVDPVDTATYYCARMGQLHYYGYDYAMDYWGQGTLVTVSS
VL: DIQLTQSPSFLSASVGDRVTITCSASSSVSYMYWYQQKPGKAPKPLIYRTSNLASGVPSRFSGSGSGTEYTLTISSMQPEDFATYYCQLYHSYPPTWTFGQGTKLEIK
Consider B2, for which the binding result in experiment [4], in experiment [5] and in experiment [6] was “no binding (tested: 10 µg/ml)” throughout. Moreover, the results for the EC50 in experiment [7], in experiment [2] and in experiment [3] were 0.15 nM, 1.51 nM and 0.153 nM, respectively. For the same molecule, the Kd in experiment [1] came to 0.271 nM. In addition, the koff in experiment [1] was 0.000259 s⁻¹. Further, the kon in experiment [1] is 957000 M⁻¹ s⁻¹.

B3: VH2-1 + VL1-2 (humanized anti-IL-25 antibody formed by VH2-1 and VL1-2) (antibody, V domains shown)
VH: QVTLRESGPALLKPTQTLTLTCTFSGFSLSTSGMGLGWIRQPPGKALEWLAHIWWDDVKHYKPALKSRLTISKDTSKNQVVLTITNVDPVDTATYYCARMGQLHYYGYDYAMDYWGQGTLVTVSS
VL: EIVLTQSPATLSASPGERVTISCSASSSVSYMYWYQQKPGQAPRPLIYRTSNLASGVPARFSGSGSGTDYTLTISSMEPEDFATYYCQLYHSYPPTWTFGQGTKLEIK
Turning to B3, the binding result in experiment [4], in experiment [5] and in experiment [6] was “no binding (tested: 10 µg/ml)” throughout. Besides, the figures for the EC50 in experiment [7], in experiment [2] and in experiment [3] were 0.196 nM, 1.12 nM and 0.231 nM, respectively. Moreover, in experiment [1], the Kd is 0.275 nM. The molecule also had a koff in experiment [1] of 0.000327 s⁻¹. The molecule further returned a kon in experiment [1] of 1.19e+06 M⁻¹ s⁻¹.

B4: VH1-1 + VL1-2 (humanized anti-IL-25 antibody formed by VH1-1 and VL1-2) (antibody, V domains shown)
VH: QVTLKESGPTLVKPTQTLTLTCTFSGFSLSTSGMGLGWIRQPPGKALEWLAHIWWDDVKHYKPALKSRLTITKDTSKNQVVLTMTNVDPVDTATYYCARMGQLHYYGYDYAMDYWGQGTLVTVSS
VL: EIVLTQSPATLSASPGERVTISCSASSSVSYMYWYQQKPGQAPRPLIYRTSNLASGVPARFSGSGSGTDYTLTISSMEPEDFATYYCQLYHSYPPTWTFGQGTKLEIK
notes: Captured by anti-human Fc gamma antibody in SPR
B4: the binding result in experiment [4], in experiment [5] and in experiment [6] was “no binding (tested: 10 µg/ml)” each time. Also, the EC50 in experiment [7] is 0.25 nM; in experiment [3], 0.242 nM. This molecule returned a Kd in experiment [1] of 0.267 nM. The molecule further gave a koff in experiment [1] of 0.000284 s⁻¹. In experiment [1], this molecule displayed a kon of 1.06e+06 M⁻¹ s⁻¹.

B5: VH2-1 + VL2-1 (humanized anti-IL-25 antibody formed by VH2-1 and VL2-1) (antibody, V domains shown)
VH: QVTLRESGPALLKPTQTLTLTCTFSGFSLSTSGMGLGWIRQPPGKALEWLAHIWWDDVKHYKPALKSRLTISKDTSKNQVVLTITNVDPVDTATYYCARMGQLHYYGYDYAMDYWGQGTLVTVSS
VL: DIQLTQSPSFLSASVGDRVTITCSASSSVSYMYWYQQKPGKAPKPLIYRTSNLASGVPSRFSGSGSGTEYTLTISSMQPEDFATYYCQLYHSYPPTWTFGQGTKLEIK
As to B5, the binding result in experiment [4], in experiment [5] and in experiment [6] was “no binding (tested: 10 µg/ml)” in each case. Also, the concentration for a half-maximal effect (EC50) in experiment [7] was 0.187 nM; in experiment [3], 0.244 nM. In experiment [1], this molecule displayed a Kd of 0.302 nM. The koff in experiment [1] worked out at 0.000353 s⁻¹. In experiment [1], this molecule yielded a kon of 1.17e+06 M⁻¹ s⁻¹.
